# Tests used:
# HLA-A*32:01 = test: IEDB peptide-MHC binding, purified MHC/competitive/radioactivity; filed as Kd, often an IC50 or EC50 that approximates it; ≥ and ≤ were set here for values at or beyond the usual limits of such assays
# HLA-B*44:03 = test: as above
# HLA-B*44:02 = test: as above
# HLA-A*01:01 [1] = test: as above
# HLA-A*26:01 = test: as above
# HLA-A*29:02 = test: as above
# HLA-A*30:02 = test: as above
# HLA-A*24:02 = test: as above
# HLA-A*23:01 = test: as above
# HLA-B*40:01 = test: IEDB peptide-MHC binding, purified MHC/direct/fluorescence; filed as Kd, often an IC50 or EC50 that approximates it; ≥ and ≤ were set here for values at or beyond the usual limits of such assays; conditions: source organism: SARS-CoV1
# HLA-A*03:01 [2] = test: IEDB peptide-MHC binding, purified MHC/competitive/radioactivity; filed as Kd, often an IC50 or EC50 that approximates it; ≥ and ≤ were set here for values at or beyond the usual limits of such assays; conditions: source organism: Triticum aestivum
# HLA-A*11:01 [3] = test: as above; conditions: source organism: Triticum aestivum
# HLA-A*68:01 = test: as above; conditions: source organism: Triticum aestivum
# HLA-A*33:01 = test: as above; conditions: source organism: Triticum aestivum
# HLA-A*31:01 = test: as above; conditions: source organism: Triticum aestivum
# HLA-A*11:01 [4] = test: IEDB peptide-MHC binding, purified MHC/direct/fluorescence; filed as Kd, often an IC50 or EC50 that approximates it; ≥ and ≤ were set here for values at or beyond the usual limits of such assays; conditions: source organism: SARS-CoV1
# HLA-B*15:01 = test: as above; conditions: source organism: SARS-CoV1
# HLA-A*01:01 [5] = test: as above; conditions: source organism: SARS-CoV1
# HLA-A*03:01 [6] = test: as above; conditions: source organism: SARS-CoV1
# HLA-B*58:01 = test: as above
# HLA-B*57:01 = test: as above; conditions: source organism: Yersinia pestis Antiqua
# [7] = source organism: Vaccinia virus WR
# [8] = source organism: Dengue virus 4 Philippines/H241/1956
# [9] = source organism: Dengue virus 2 Jamaica/1409/1983
# [10] = source organism: Dengue virus 1 Brazil/97-11/1997
# [11] = source organism: SARS coronavirus Tor2
# [12] = source organism: Mammarenavirus guanaritoense
# [13] = source organism: Vaccinia virus Copenhagen
# [14] = source organism: Dengue virus 3 Martinique/1243/1999
# [15] = source organism: Triticum aestivum
# [16] = source organism: Mammarenavirus machupoense
sequence,measurement,setting,value
MLMRVAVGI,Kd,HLA-A*32:01; [7],0.692 nM
SETFSMGLLC,Kd,HLA-B*44:03; [8],82.9 nM
RMLINRFTM,Kd,HLA-A*32:01; [9],95.7 nM
GEVGAIALDF,Kd,HLA-B*44:03; [10],23.5 nM
same,Kd,HLA-B*44:02; [10],21.5 nM
PTITQMNLKY,Kd,HLA-A*01:01 [1]; [11],89.6 nM
same,Kd,HLA-A*26:01; [11],827 nM
same,Kd,HLA-A*29:02; [11],48.4 nM
same,Kd,HLA-A*30:02; [11],1120 nM
same,Kd,HLA-A*24:02; [11],≥ 70300 nM
same,Kd,HLA-A*23:01; [11],≥ 70000 nM
FTILCLVPAY,Kd,HLA-A*01:01 [1]; [11],456 nM
same,Kd,HLA-A*26:01; [11],10.6 nM
same,Kd,HLA-A*29:02; [11],15.5 nM
same,Kd,HLA-A*30:02; [11],329 nM
same,Kd,HLA-A*24:02; [11],≥ 70300 nM
same,Kd,HLA-A*23:01; [11],≥ 70000 nM
AEDMLNPNY,Kd,HLA-A*01:01 [1]; [11],≥ 87700 nM
same,Kd,HLA-A*26:01; [11],≥ 86900 nM
same,Kd,HLA-A*29:02; [11],3800 nM
same,Kd,HLA-A*30:02; [11],12900 nM
same,Kd,HLA-A*24:02; [11],≥ 77600 nM
same,Kd,HLA-A*23:01; [11],≥ 77800 nM
same,Kd,HLA-B*40:01,4390 nM
AMFTAALNI,Kd,HLA-A*32:01; [7],123 nM
VPDIPELSY,Kd,HLA-A*01:01 [1]; [12],3070 nM
same,Kd,HLA-A*26:01; [12],≥ 49300 nM
same,Kd,HLA-A*29:02; [12],11700 nM
same,Kd,HLA-A*30:02; [12],≥ 25300 nM
same,Kd,HLA-A*24:02; [12],≥ 77500 nM
same,Kd,HLA-A*23:01; [12],≥ 77700 nM
NEMGLLETT,Kd,HLA-B*44:03; [10],8030 nM
VTYELRYTL,Kd,HLA-A*32:01; [13],11.9 nM
LLMYNLLTI,Kd,HLA-A*32:01; [13],71.7 nM
KSLKKVYTF,Kd,HLA-A*32:01; [7],0.485 nM
EEESEGAIW,Kd,HLA-B*44:03; [14],67.7 nM
same,Kd,HLA-B*44:02; [14],33.7 nM
VTPSGTWLTY,Kd,HLA-A*01:01 [1]; [11],66.1 nM
same,Kd,HLA-A*26:01; [11],392 nM
same,Kd,HLA-A*29:02; [11],66.1 nM
same,Kd,HLA-A*30:02; [11],45.3 nM
same,Kd,HLA-A*24:02; [11],≥ 57700 nM
same,Kd,HLA-A*23:01; [11],≥ 49100 nM
KSQVLQQSTY,Kd,HLA-A*01:01 [1]; [15],678 nM
same,Kd,HLA-A*03:01 [2],≥ 21700 nM
same,Kd,HLA-A*11:01 [3],≥ 22100 nM
same,Kd,HLA-A*26:01; [15],≥ 102000 nM
same,Kd,HLA-A*68:01,≥ 70200 nM
same,Kd,HLA-A*29:02; [15],12000 nM
same,Kd,HLA-A*30:02; [15],260 nM
same,Kd,HLA-A*33:01,≥ 70000 nM
same,Kd,HLA-A*31:01,≥ 47200 nM
same,Kd,HLA-A*24:02; [15],≥ 70300 nM
same,Kd,HLA-A*23:01; [15],≥ 39000 nM
LQSLENVAY,Kd,HLA-A*01:01 [1]; [11],≥ 42300 nM
same,Kd,HLA-A*26:01; [11],≥ 81500 nM
same,Kd,HLA-A*29:02; [11],6670 nM
same,Kd,HLA-A*30:02; [11],617 nM
same,Kd,HLA-A*24:02; [11],≥ 77600 nM
same,Kd,HLA-A*23:01; [11],≥ 77800 nM
same,Kd,HLA-A*11:01 [4],≥ 44700 nM
same,Kd,HLA-B*15:01,161 nM
EENMDVEIW,Kd,HLA-B*44:03; [10],123 nM
same,Kd,HLA-B*44:02; [10],82.8 nM
LSDDAVVCY,Kd,HLA-A*26:01; [11],≥ 80300 nM
same,Kd,HLA-A*29:02; [11],1000 nM
same,Kd,HLA-A*30:02; [11],1450 nM
same,Kd,HLA-A*24:02; [11],≥ 77600 nM
same,Kd,HLA-A*23:01; [11],≥ 77800 nM
same,Kd,HLA-A*01:01 [5],17.5 nM
same,Kd,HLA-A*03:01 [6],9260 nM
same,Kd,HLA-A*11:01 [4],≥ 22300 nM
same,Kd,HLA-B*15:01,474 nM
same,Kd,HLA-B*58:01; source organism: SARS-CoV1,300 nM
SQSDTVFDH,Kd,HLA-A*01:01 [1]; source organism: Variola virus,≥ 23800 nM
same,Kd,HLA-A*26:01; source organism: Variola virus,≥ 77900 nM
same,Kd,HLA-A*29:02; source organism: Variola virus,≥ 48300 nM
same,Kd,HLA-A*30:02; source organism: Variola virus,≥ 76900 nM
same,Kd,HLA-A*24:02; source organism: Variola virus,≥ 77500 nM
same,Kd,HLA-A*23:01; source organism: Variola virus,≥ 44400 nM
GTHYQNHGF,Kd,HLA-A*32:01; [7],6.02 nM
EMICFHEFL,Kd,HLA-A*29:02; [16],11300 nM
same,Kd,HLA-A*24:02; [16],≥ 40900 nM
same,Kd,HLA-A*23:01; [16],6960 nM
FAGKTVWFVP,Kd,HLA-A*32:01; [14],≥ 26600 nM
PITAAAWYLW,Kd,HLA-A*32:01; [9],1680 nM
TEIASLPTY,Kd,HLA-B*44:03; [8],18.5 nM
same,Kd,HLA-B*44:02; [8],13 nM
MANICWIYY,Kd,HLA-B*58:01; source organism: Yersinia pestis Antiqua,43.3 nM
same,Kd,HLA-B*57:01,256 nM
GYKNVRITF,Kd,HLA-A*01:01 [1]; [11],≥ 78100 nM
same,Kd,HLA-A*26:01; [11],≥ 54100 nM
same,Kd,HLA-A*29:02; [11],3700 nM
same,Kd,HLA-A*30:02; [11],≥ 23100 nM
same,Kd,HLA-A*24:02; [11],6990 nM
same,Kd,HLA-A*23:01; [11],11000 nM
TDNVHTWTEQ,Kd,HLA-A*32:01; [9],≥ 37600 nM
ASLVMLLVHY,Kd,HLA-A*01:01 [1]; [8],1830 nM
same,Kd,HLA-B*44:03; [8],≥ 70100 nM
same,Kd,HLA-A*30:02; [8],1900 nM
ASISSVLTI,Kd,HLA-A*32:01; [7],13.3 nM
TYVPSQERNF,Kd,HLA-A*01:01 [1]; [11],≥ 70400 nM
same,Kd,HLA-A*26:01; [11],≥ 69700 nM
same,Kd,HLA-A*29:02; [11],1310 nM
same,Kd,HLA-A*30:02; [11],14100 nM
same,Kd,HLA-A*24:02; [11],72.3 nM
same,Kd,HLA-A*23:01; [11],39.2 nM
